Assay results: the DeepSol protein solubility set

Assay: soluble on expression in E. coli; label from the status in PepcDB or PDB records

Soluble on expression in E. coli, not soluble:
MGSDKIHHHHHHMRYRRFGRTELAMPVFSCGGMRYQQSWKDVDWPEISVESQANLEATLARSLELGINHIETARYYGSSERQLGKALAAYPRSEIILQTKVPPSEDPAEFLETFDRSMSLLQTDYVDLLSIHGVNNAELLDWALRKGGSLDVAERLQAEGRVRHIGFSTHAPLPVILEAIASDRLSYINLHWYYIFQTNQAALEAAQKHDMGVFIISPSDKGGHLYSPPQKLVDLCEPLHPMVFNDLFCLSQPQIHTLSIGAARPSDFDRHLETLPLLDQADQVLPPILERLEAAATAALGQDWLDTWMVGLPTPDTTPGEINIPTIVWLYNLVQAFDMVKYAKARYNLLGNGGHWFPGQRAGQFDPVALSAALDQSPHRDRILQILKEMDAWLGGESVVRLSQSS, MGSDKIHHHHHHMRYSICYTPSARDPLSLAAASWLGRNVYSDEPVEHPGLAGLGLHEIAFHTALPRRNGFHGCLKAPFALHPEVSEAQLLRELMHFAGIVEPFALPGLEVAKLGDFCGLTLTHPSNQLDRVAALVVQNFDRFRAPLSDAEIERMAPERLSAPQFANLYRWGDPHVLDEYRFYMPLTGPLPLSHRDRLHQAATHYFAPLLQNPVVFANLALFIEREPGAPLVVHSLHPMGRVSARKIA, MGSDKIHHHHHHMSAEEQINQFKKFCAAIISFDEEEWQAMEKCLRIKFLSKDDYFLRQGKTCSRMGFVCKGYTRLFFLIDGEEHTKDFCFENTFTGSLASFLVRKPAAFNVVAMEDTYMLTIEYNALMELYKNYMCWNTFGRIVVEQFAIRKENREVTFLLNTPEKRYEEVSDQYPHLLQRAPLKMIASYLNMTPETLSRIRSKKTK, MGSDKIHHHHHHMSARLDAQIAFLKQADRLKSVERANVLLDLSRPENSAEHSWHLALWALVLSPFAAPDVDVDRAIRMLLLHDLVEIETGDHPIHEVTDWQAVERAERAAARKLFGLLPPDQAADFHTLWTEFDADETADARYAKMLDRCQPMFQVLCADTPRPDHVEVVRENLSSGRAAYLAEAFPEAHAHARALLERHPPVTGGFGDRLEFLAEADRLKTVLRASRLMDDSRFENSAEHSWHIMLYAWVLGEYAAAPVDIDRVLRMLLLHDLVEIDAGDNPIHGNVDHAAQEALEAAAAERLFGLLPPDQGAGLRAIWQEFETAQSADALFGKAVDRVQTPIANLENGGGSWVTYDVSLQQLVARVGTPVSRGAPGLWDWLFPQLSDCFTRLGLRL, MGSDKIHHHHHHMSASLNYKSFSKEQQTMDNLEKQLICPICLEMFTKPVVILPCQHNLCRKCASDIFQASNPYLPTRGGTTMASGGRFRCPSCRHEVVLDRHGVYGLQRNLLVENIIDIYKQESTRPEKKSDQPMCEEHEEERINIYCLNCEVPTCSLCKVFGAHKDCQVAPLTHVFQRQKSELSDGIAILVGSNDRVQGVISQLEDTCKTIEECCRKQKQELCEKFDYLYGILEERKNEMTQVITRTQEEKLEHVRALIKKYSDHLENVSKLVESGIQFMDEPEMAVFLQNAKTLLKKISEASKAFQMEKIEHGYENMNHFTVNLNREEKIIREIDFYR, MGSDKIHHHHHHMSASMPAYMSDPTDEQLSALNMAMDHKSFKVVAYAGAGKTTTLKLIGERLRGRGLYLAFNKAIANDARAKFPSHVECRTFHSLAYRHVARDITAKLSLPRFSPKRLGDDLGLQPVQVRRQMDGVNKYITLTPARLSRFVSDAISNFCSTHASYPAPRHILFPSWLDGSDAEQLREMLYPAVEQRWLQSIDARHPAGIGHDIYLKLWALSKPSIPADFILFDEAQDADPLMMGILTQQPRQVIYVGDAHQQIYEWRGAVNAMKRLPLPQTLLTQSFRFGEPIAEIANTLLKALQEDVPLKGNPNKQSSTDKGMVHSKKDAILCRTNAAAMSQLLTGLKLGHKVALQADTDRMLKFCQAAENLKNGKSAYGVPELAYFYNWGDVQEYSETNEGSDLKTLVKLVDDHGTNVLSQAVNSLSSIENADYVISTAHKAKGLEWGKVQLDDDFYYDVTTNAVKISPEELRLLYVACTRAQSNLDIHNIKDLISGLQTGKKVVFGNS, MGSDKIHHHHHHMSDAAIAQDLAALAAQLQTLAGLQGKRDIQAAAASLPHRPFPKLGLAAALGDDAALLPATANRLLFACEGIHPDLVAEDPWFAGWSGVLVNLSDIAAMGGRPIAVVNSLWSRDRQHADQVFAGLQFAAEKFGIPIVGGHSNLQSPYSALSVAVLGQVGPHVLSARSAQAGDRCYLLINRDGQFYRHYPFWDAATGTAPEQLRRHWELMAQLADAGLVSAAKDVSMGGLIGTAVMFAETSGAGLDLHLDRLSYPAGVSRDRWLTCFPSFGFLLAVPEACCDRFLQRVATEPDLTCDHLGSFTNTGQVRLCDRQAQVCFWDCQEQSLMGFSALTDPESPH
